Key:
HCT116 cells = format: cell-based, human
Method: Bis-(1,3-Dibutylbarbituric Acid) Trimethine Oxonol [DiBAC4(3)]
Supplemental Figure 3 (related to Figure 1). The potential mechanism of PS-oligo
mediated cell penetration.
penetration was assessed by flow cytometry. SD is shown. Unpaired student t-test. ****
P< 0.001. Data shown is the representative of 3 independent experiments.
(B) HCT116 cells were pre-treated with a variety of endocytosis inhibitors prior to
treating with FAM-labeled PS-acet.-STAT3 peptide. The graph represents the statistical
analysis of the fluorescence intensity (M.F.I) of FAM-labeled peptide shown in A. SD is
shown. n= 5 independent experiments. Unpaired student t-test. **** P< 0.001.
(C) Polarization of cell membrane contributes to penetration of PS-acet.-STAT3
peptide. Cell membrane was depolarized by adding 120 mM KCl to HCT116 for 2.5 h,
followed by incubation with the peptide (upper panel). Data is representative of 4
independent experiments. Depolarization of the cell membrane was confirmed by
applying 2.5 mM DiBAC4(3) to other cells (lower panel). n= 3 independent experiments.
Penetration was assessed by flow cytometry. The right panels show the mean of
fluorescence intensity (M.F.I) quantified by FlowJo software. SD is shown. Unpaired
student t-test. *, P<0.05; *** P< 0.005.
Aftabizadeh and Li et al., Figure S3

exportin 7 = target: T1, exportin 7 (Homo sapiens, UniProt Q9UIA9); experiment: Immunoprecipitation of FAM-labeled peptide and Western blotting, exportin 7; format: binding; settings: anti-FITC (FAM) immunoprecipitation, Western blotting, U251 cells
T1 construct: endogenous in cells; host or cells: U251
Method: Data are representative of 3 independent experiments (n = 3).
Whole cell lysates or tissue homogenates were prepared by using RIPA lysis buffer (50 mM Tris at pH 7.4, 150 mM NaCl, 1 mM EDTA, 0.5% NP-40, 1 mM NaF, 15% glycerol, and 20 mM β-glycerophosphate). A protease inhibitor cocktail (Mini Protease Inhibitor Cocktail; Roche) and a tyrosine phosphatase inhibitor, sodium orthovanadate (Na3VO4, 1 mM), were added freshly to the lysis buffer. Protein amounts were determined by BCA using a Thermo Fisher Scientific kit. Normalized protein amounts were subjected to an SDS-PAGE and transferred onto a nitrocellulose membrane for Western blotting. Proteins were visualized with a chemiluminescent detection kit (Pierce, Thermo Fisher Scientific). The protein levels for STAT1 (sc-346, E-23), STAT3 (sc-482, C-20), STAT5 (sc-74442, A-9), Crm1 (exportin 1) (sc-5595, H-300), CAS (exportin 2) (sc-271537, H-2), exportin 5 (sc-66885, H-300), and exportin 7 (sc-98639, H-82) were determined using antibodies from Santa Cruz Biotechnology Inc. Anti–exportin 3 (exportin T, 630622, LOS1 05-1525), anti–exportin 4 (3499-1), and anti–exportin 6 (11408-1-AP) were from MilliporeSigma, Epitomics, and Proteintech, respectively. […]

STAT5 = experiment: Immunoprecipitation and Western blotting, STAT5; format: binding, human; settings: immunoprecipitation, Western blotting, U251 cells
From the text: Figure 2 PS-acet.-STAT3-peptide specifically binds STAT3 in the nucleus. (A) Penetration of PS-acet.-STAT3 peptide and its colocalization with STAT3 protein in U251 cells are confirmed by confocal microscopy. Scale bars: 50 μm. Insets: original magnification, ×40. (B) PS-acet.-STAT3 peptide specifically binds to STAT3 protein, not STAT1 and STAT5 proteins, shown in U251 cells by immunoprecipitation followed by Western blotting (left panel). Expression of total STAT1, STAT3, and STAT5 was confirmed by Western blotting in U251 cells (input protein level, right panel).
Whole cell lysates or tissue homogenates were prepared by using RIPA lysis buffer (50 mM Tris at pH 7.4, 150 mM NaCl, 1 mM EDTA, 0.5% NP-40, 1 mM NaF, 15% glycerol, and 20 mM β-glycerophosphate). […] Protein amounts were determined by BCA using a Thermo Fisher Scientific kit. […] The protein levels for STAT1 (sc-346, E-23), STAT3 (sc-482, C-20), STAT5 (sc-74442, A-9), Crm1 (exportin 1) (sc-5595, H-300), CAS (exportin 2) (sc-271537, H-2), exportin 5 (sc-66885, H-300), and exportin 7 (sc-98639, H-82) were determined using antibodies from Santa Cruz Biotechnology Inc. Anti–exportin 3 (exportin T, 630622, LOS1 05-1525), anti–exportin 4 (3499-1), and anti–exportin 6 (11408-1-AP) were from MilliporeSigma, Epitomics, and Proteintech, respectively. […]

[1] = Systemic toxicity in mice; format: in vivo; settings: 1 mg/kg i.v. every other day for 3 weeks, n = 3
Method: To evaluate the potential toxicity associated with systemic treatments of PS-peptide, PS-acet.-STAT3 peptide, PS-oligo, naive peptide, and PO- or PS-acet.-STAT3 peptide were given to the mice at 1 mg/kg through i.v. every other day for 3 weeks.
Supplemental Figure 10 (related to Figure 3). The systemic toxicity of PS-acet.-peptide.
The bodyweight (A), blood count (B) and organ morphology (H&E staining; spleen, kidney and liver) (C) of the mice (n=3) treated with HBSS (1), PS-oligo (2), naïve peptide (3), PO-peptide (4) or PS-peptide (5) every other day at 1 mg/kg (per treatment) for 3 weeks.
Individual value of each mouse is shown as a dot on the graph. The red lines on each graph in (B) indicate the normal ranges. Blood count was done by a veterinary hematology analyzer. The images shown in (C) are the represented H&E section from three mice (n=3). Enlarged view are shown below as indicated. Scale bar, 50 µm.
Aftabizadeh and Li et al., Figure S10

STAT3 = STAT3 (Homo sapiens, UniProt P40763); experiment: STAT3 protein stability after cycloheximide; format: cell-based; set-up: protein stability of STAT3 in HCT 116 cells; endogenous in cells; host or cells: HCT116; settings: HCT116, 1 µM peptide pre-incubated 2 hours, 0-2 hours, Western blotting, n = 3
Method: (H) The protein stability of STAT3 in HCT 116 cells was measured at different time points as indicated following cycloheximide (CHX) treatment. The cells were pre-incubated with 1 µM of PS-acet.-STAT3 pept. for 2 hours before adding […] of CHX. The protein level of STAT3 was detected by Western blotting. The quantification was analyzed by protein band intensity od STAT3 and actin by ImageJ software. n= 3 independent experiments. SD is shown. Two-way ANOVA; ns, not significant.
Aftabizadeh et and Li al., Figure S5

STAT3, sequence (P40763 whole entry): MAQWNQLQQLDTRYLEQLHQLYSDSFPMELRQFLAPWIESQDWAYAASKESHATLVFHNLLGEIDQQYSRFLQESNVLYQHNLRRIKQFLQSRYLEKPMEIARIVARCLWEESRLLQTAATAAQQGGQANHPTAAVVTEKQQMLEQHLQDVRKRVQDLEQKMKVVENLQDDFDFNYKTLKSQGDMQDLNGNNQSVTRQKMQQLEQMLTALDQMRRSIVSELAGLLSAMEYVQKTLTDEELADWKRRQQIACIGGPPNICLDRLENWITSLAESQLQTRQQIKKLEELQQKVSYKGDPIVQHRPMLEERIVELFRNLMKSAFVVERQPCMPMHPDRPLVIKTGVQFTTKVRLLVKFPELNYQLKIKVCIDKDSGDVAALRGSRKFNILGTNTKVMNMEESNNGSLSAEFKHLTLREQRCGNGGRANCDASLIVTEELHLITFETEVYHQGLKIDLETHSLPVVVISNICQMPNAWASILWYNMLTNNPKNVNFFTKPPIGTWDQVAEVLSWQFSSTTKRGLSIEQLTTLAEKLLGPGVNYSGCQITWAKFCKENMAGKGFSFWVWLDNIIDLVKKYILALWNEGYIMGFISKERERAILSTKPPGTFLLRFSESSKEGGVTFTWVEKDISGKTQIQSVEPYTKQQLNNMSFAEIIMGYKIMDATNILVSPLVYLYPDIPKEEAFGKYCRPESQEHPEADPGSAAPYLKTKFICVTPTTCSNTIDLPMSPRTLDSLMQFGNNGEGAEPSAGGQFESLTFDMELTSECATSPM
T1 sequence (Q9UIA9 whole entry): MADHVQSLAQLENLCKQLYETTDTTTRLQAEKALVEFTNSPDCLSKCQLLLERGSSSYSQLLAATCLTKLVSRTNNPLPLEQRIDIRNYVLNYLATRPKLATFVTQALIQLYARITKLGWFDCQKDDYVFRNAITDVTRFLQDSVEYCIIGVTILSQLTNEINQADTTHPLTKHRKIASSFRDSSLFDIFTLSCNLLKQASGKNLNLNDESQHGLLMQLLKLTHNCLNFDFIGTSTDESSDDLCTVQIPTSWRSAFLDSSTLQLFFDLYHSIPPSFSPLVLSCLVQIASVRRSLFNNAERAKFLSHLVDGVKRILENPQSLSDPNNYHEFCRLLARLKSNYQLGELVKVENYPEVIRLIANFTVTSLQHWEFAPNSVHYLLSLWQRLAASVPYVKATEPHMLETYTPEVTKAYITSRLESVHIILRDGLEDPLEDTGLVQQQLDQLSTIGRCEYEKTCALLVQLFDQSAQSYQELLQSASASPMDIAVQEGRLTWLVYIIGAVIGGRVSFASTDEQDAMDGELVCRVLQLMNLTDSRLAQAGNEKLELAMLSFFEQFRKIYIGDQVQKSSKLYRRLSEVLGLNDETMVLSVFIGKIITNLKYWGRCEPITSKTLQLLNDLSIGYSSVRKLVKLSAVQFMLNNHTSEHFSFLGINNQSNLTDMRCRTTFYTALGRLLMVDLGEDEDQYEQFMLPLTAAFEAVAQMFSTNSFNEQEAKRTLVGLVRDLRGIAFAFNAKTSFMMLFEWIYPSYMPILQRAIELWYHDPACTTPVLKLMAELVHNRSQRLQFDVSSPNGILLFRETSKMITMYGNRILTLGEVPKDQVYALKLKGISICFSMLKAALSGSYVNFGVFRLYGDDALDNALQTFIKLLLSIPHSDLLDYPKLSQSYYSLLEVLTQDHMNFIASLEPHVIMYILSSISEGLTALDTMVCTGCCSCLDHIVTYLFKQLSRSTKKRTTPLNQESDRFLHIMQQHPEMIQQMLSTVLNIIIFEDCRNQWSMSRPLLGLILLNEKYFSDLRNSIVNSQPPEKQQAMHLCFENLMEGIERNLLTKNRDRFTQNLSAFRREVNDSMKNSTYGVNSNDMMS

## PDIPKEEAFGK685(Ac)YCRPESQEHPC-linker-T*C*C*A*T*G*A*G*C*T*T*C*C*T*G*A*T*G*C*T [PS-acet.-STAT3 peptide]
HCT116 cells
  peptide penetration in presence of dextran sulfate: partially
Exportin 7
  binding to exportin 7: bound
STAT5
  binding to STAT5 protein: not
[1]
  behavior, body weight, blood counts: No behavior changes, body weight loss, or abnormal blood counts
  morphology and cell death in liver, spleen, kidney tissues (H&E): no significant morphology change or cell death
STAT3
  protein stability of STAT3: not affected

From publication PMC7934871 (JCI Insight, 2021)
